{"source": "patent US6991794B1", "about": "“Progenitor cell preservation factors and methods for and products of their use” (ImClone Systems Incorporated, priority 1997, dated 2006)", "key": {"[1]": {"system": "untransfected 3T3 cells", "assay": "untransfected parent 3T3 control cells (XTT)", "assay_type": "cell-based", "settings": "Example 5 serum-free conditions", "experimental": "Specifically, 3T3 cells cultured in tissue culture plates (Becton Dickinson Labware, Lincoln Park, N.J.) were removed from the plates by washing cells twice in Hank's buffered saline solution (HBSS; Gibco Laboratories, Grand Island, N.Y.). Non-enzymatic cell dissociation buffer (Gibco) was added for 15 minutes at room temperature. The resulting cells were washed in medium. FLT3 3T3 cells were cultured at a final concentration of 3,000 cells per well in a volume of 100 μL of serum-defined medium containing […] rhIL1-α, 10% AIMV (Gibco, Grand Island, N.Y.) and 90% Dulbecco's modification of Eagle's medium (DMEM; Gibco) in 96 well plates. […] Proliferation and cell survival was quantitated by addition of XTT (2, 3-bis[Methoxy-4-nitro-5sulfophenyl]-2H-tetrazolium-5 carboxanilide inner salt) (Diagnostic Chemicals Ltd, Charlottetown, Prince Edward Island, Canada), which is a […] cleaved by actively respiring cells (Roehm et al., J. Immunol. Methods 142: 257-265, 1991). Proliferation and cell survival was quantitated spectrophotometrically using a Vmax kinetic plate reader (Molecular Devices Corp., Mountain View, Calif.), and recorded as either relative activity (units/mL) or as specific activity (units/mg). One unit of biological activity was defined as the reciprocal dilution at which half-maximal stimulation of cells is detected. […]"}, "[2]": {"system": "Flt3-expressing 3T3 cells", "assay": "Flt3 3T3 assay during purification of Pv-FRIL", "assay_type": "cell-based", "settings": "80,000-fold purification; IL1-α or PHA-LCM as co-factor", "experimental": "To create factor-dependence for receptor-transfected 3T3 cells, growth conditions were compromised to permit only ligands to rescue cells from death. To do this, 3T3 cell lines were assayed in 96 well plates (Becton Dickinson Labware, Lincoln Park, N.J.) containing 3,000 cells in 100 μL of serum-free medium consisting of 10% AIMV (Life Technologies) and 90% DMEM. In each experiment, samples were serially diluted two-fold across rows starting at a 1:10 dilution. Viable cells were quantitated after 3-5 days by XTT (2,3-bis[Methoxy-4-nitro-5sulfophenyl]-2H-tetrazolium-5 carboxanilide inner salt) (Sigma, St. Louis, Mo.) (Roehm et al., supra). Relative activity (units/ml) and specific activity (units/mg) are defined as the reciprocal dilution at which half-maximal stimulation of cells was detected.\nEach batch of PHA-LCM was generated in serum-free medium with cells from individual normal donors. To start purification, the PHA-LCM with Flt3 3T3 activity was pooled in 30 liter lots with approximately 10^7 Flt3 3T3 units. Twenty-five liters of PHA-LCM was diafiltered into 50 mM Tris-HCl, pH 7.6, 50 mM NaCl and then concentrated to 2-2.5 liters by tangential flow ultrafiltration on a 10 kDa molecular weight cutoff membrane (Pellicon, Millipore, Bedford, Mass.). A Blue-sepharose FF (Pharmacia Biotech) column (10 cm×15 cm) was equilibrated with 50 mM Tris-HCl, pH 7.4,50 mM NaCl. […]"}}}
{"molecule": "Pv-FRIL: FRIL family mannose-binding lectin from Phaseolus vulgaris (red kidney bean), SEQ ID NO: 6 (protein) AQSLSFNFTKFDLDQKDLIFQGDATSTNNVLQLTKLDSGGNPVGASVGRVLFSAPFHLWENSMAVSSFETNLTIQISTPHPYYAADGFAFFLAPHDTVIPPNSWGKFLGLYSNVFRNSPTSENQSFGDVNTDSRVVAVEFDTFPNANIDPNYRHIGIDVNSIKSKETARWEWQNGKTATARISYNSASKKSTVTTFYPGMEVVALSHDVDLHAELPEWVRVGLSASTGEEKQKNTIISWSFTSSLKNNEVKEPKEDMYIANVVRSYTWINDVLSYISNKMYDALNNNHKYVRCSTCMLFMKKK", "values": [{"measurement": "response of parent untransfected 3T3 cells", "setting": "[1]", "result": "did not"}, {"measurement": "specific activity of purified fraction", "setting": "[2]", "result": "244,500 units/mg"}]}
